Results as given in article PMC2133002 (The Journal of Cell Biology, 1998).
One block for each molecule: values may come before it.

Tests used:
Test in all cases: co-IP
[1] = biological target: membrin (rat (endogenous in rat liver)) (UniProt O35165)
[2] = biological target: rbet1 (rat (endogenous in rat liver)) (UniProt Q62896)
[3] = biological target: T1, Golgi SNARE of 28 kD (GOS-28) (rat (endogenous in rat liver), UniProt Q62931 1-250)
T1 sequence: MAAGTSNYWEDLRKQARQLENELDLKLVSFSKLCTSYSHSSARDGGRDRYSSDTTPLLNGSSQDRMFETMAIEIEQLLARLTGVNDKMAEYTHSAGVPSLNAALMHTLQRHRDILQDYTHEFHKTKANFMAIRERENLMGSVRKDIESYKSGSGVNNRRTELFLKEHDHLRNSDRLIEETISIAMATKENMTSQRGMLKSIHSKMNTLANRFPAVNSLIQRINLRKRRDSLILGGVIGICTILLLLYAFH

[4] = biological target: T2, membrin (rat (endogenous in rat liver), UniProt O35165 1-212)
T2 sequence: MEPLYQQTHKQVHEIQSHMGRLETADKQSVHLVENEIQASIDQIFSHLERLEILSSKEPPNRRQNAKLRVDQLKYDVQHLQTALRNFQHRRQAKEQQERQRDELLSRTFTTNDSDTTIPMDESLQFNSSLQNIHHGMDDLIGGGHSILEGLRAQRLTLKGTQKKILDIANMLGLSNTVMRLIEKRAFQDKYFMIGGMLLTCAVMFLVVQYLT

[5] = biological target: T3, rbet1 (rat (endogenous in rat liver), UniProt Q62896 1-118)
T3 sequence: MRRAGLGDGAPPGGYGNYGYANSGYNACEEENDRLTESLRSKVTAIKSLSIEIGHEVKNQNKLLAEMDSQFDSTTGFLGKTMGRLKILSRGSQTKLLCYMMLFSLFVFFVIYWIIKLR

Molecule: rbet1 (from UniProt Q62896 1-118) (natural protein)
efficiency of coprecipitation (arbitrary units) [1]: 115

Molecule: syntaxin 5, 31-kD form (degradation product of the 41-kD isoform) (domain or fragment)
efficiency of coprecipitation (arbitrary units) [2]: 139

B1: syntaxin 5, 41-kD isoform (natural protein)
chain: MIPRKRYGSKNTDQGVYLGLSKTQVLSPATAINSSSDIAPLPTPVALVPSPPDTMSCRDRTQEFLSACKSLQSRQNGIQTNKPALHATRQCSEFTLMARRIGKDLSNTFAKLEKLTILAKRKSLFDDKAVEIEELTYIIKQDINSLNKQIAQLQDFVRAKGSQSGRHLQTHSNTIVVSLQSKLASMSNDFKSVLEVRTENLKQQRNRREQFSRAPVSALPLAPNNLGGGPIVLGGESRASRDVAIDMMDPRTSQQLQLIDEQDSYIQSRADTMQNIESTIVELGSIFQQLAHMVKEQEETIQRIDENVLGAQLDVEAAHSEILKYFQSVTSNRWLMVKIFLILIVFFIIFVVFLA
efficiency of coprecipitation [3]: 30 arbitrary units | efficiency of coprecipitation [4]: 25 arbitrary units | efficiency of coprecipitation [5]: 129 arbitrary units

B2: syntaxin 5, 34-kD isoform (natural protein)
chain: MSCRDRTQEFLSACKSLQSRQNGIQTNKPALHATRQCSEFTLMARRIGKDLSNTFAKLEKLTILAKRKSLFDDKAVEIEELTYIIKQDINSLNKQIAQLQDFVRAKGSQSGRHLQTHSNTIVVSLQSKLASMSNDFKSVLEVRTENLKQQRNRREQFSRAPVSALPLAPNNLGGGPIVLGGESRASRDVAIDMMDPRTSQQLQLIDEQDSYIQSRADTMQNIESTIVELGSIFQQLAHMVKEQEETIQRIDENVLGAQLDVEAAHSEILKYFQSVTSNRWLMVKIFLILIVFFIIFVVFLA
efficiency of coprecipitation [3]: 134 arbitrary units | efficiency of coprecipitation [4]: 37 arbitrary units | efficiency of coprecipitation [5]: 128 arbitrary units

Results, then the molecule that gave them:

efficiency of coprecipitation (arbitrary units) [2]: 247
Molecule: rsec22b (from UniProt Q4KM74 1-215) (natural protein)

efficiency of coprecipitation (arbitrary units) [2]: 308
Molecule: membrin (from UniProt O35165 1-212) (natural protein)
